US5985836A, “Alpha-1 proteinase inhibitor binding peptides” (Bayer Corporation, priority 1998, dated 1999)
Ends that are not written are not given here.

Target: T1, A1PI (Homo sapiens, UniProt P01009)
T1 construct: Human plasma is currently the only approved source of therapeutic AlPI
Test: A1PI binding on peptide-resin column, injection of 1 mg A1PI in equilibration buffer
Conditions: for % of Total A1PI Eluted by Fraction (Based on Absorbance at 280 nm), 1M NaCl / % of Total A1PI Eluted by Fraction (Based on Absorbance at 280 nm), 2% Acetic Acid / % of Total A1PI Eluted by Fraction (Based on Absorbance at 280 nm), Flowthrough: 1 mg A1PI; for Percent A1PI Eluted by Fraction Based on Absorbance at 280 nm, 1M NaCl / Percent A1PI Eluted by Fraction Based on Absorbance at 280 nm, 2% Acetic Acid / Percent A1PI Eluted by Fraction Based on Absorbance at 280 nm, Flowthrough / Percent A1PI Eluted by Fraction, 1M NaCl / Percent A1PI Eluted by Fraction, 2% Acetic Acid / Percent A1PI Eluted by Fraction, Flowthrough: 1 mg A1PI in equilibration buffer
Procedure: Confirmatory binding assays were performed in a column chromatographic format on a microbore HPLC using individual peptide sequences synthesized directly onto the Toyopearl 650 M Chelate resin which had been modified with Totda followed by an alanine residue (A-Totda-Toyopearl), at a final substitution density of 0.1 mmole/g resin. The resin was packed into 0.4×5 cm columns (Thomson, Springfield, Va.) and tested on the Michrom HPLC system (Michrom BioResources, Auburn, Calif.). The elution program for all trials utilized the following method. The column was pre-equilibrated with equilibration buffer (as above). 1 ml of sample was injected and allowed sufficient time to flowthrough the column using equilibration buffer. The column was then washed with step elutions of 1M NaCl and 3M NaCl in equilibration buffer. The column was exposed to equilibration buffer with 0.1M NaCl. Any remaining protein was eluted with elution buffer (2% by volume glacial acetic acid in water).
A Gilson FC204 fraction collector at the HPLC outlet collected individual eluates for further analysis. Fractions collected from the 2% acetic acid eluates were neutralized with 2M Tris, pH 10.5 to bring the pH to neutrality. The protein samples were reconstituted in equilibration buffer unless otherwise stated. The samples were analyzed by the integration of the absorbance at 280 nm or by immunonephelometry. The specific method of determination is presented for each figure.
Tables 2 and 3 present the elution profiles for 19 sequences based on the injection of 1 mg AlPI in equilibration buffer at 4° C. and 20° C., respectively. The columns were run at a constant flow rate of865 μl/min (413 cm/hr) or 523 μl/min (250 cm/hr). No dependence of the elution profile with flow rate was found. The Percent AlPI Eluted by Fraction represents the amount eluted in the flowthrough, 1M NaCl wash, and 2% acetic acid fractions relative to the total AlPI eluted. The percentages are based on either the integration of the peak areas at […]

[1] = VIWLVR N-terminal point mutations, 4° C.

T1 sequence (P01009 25-418): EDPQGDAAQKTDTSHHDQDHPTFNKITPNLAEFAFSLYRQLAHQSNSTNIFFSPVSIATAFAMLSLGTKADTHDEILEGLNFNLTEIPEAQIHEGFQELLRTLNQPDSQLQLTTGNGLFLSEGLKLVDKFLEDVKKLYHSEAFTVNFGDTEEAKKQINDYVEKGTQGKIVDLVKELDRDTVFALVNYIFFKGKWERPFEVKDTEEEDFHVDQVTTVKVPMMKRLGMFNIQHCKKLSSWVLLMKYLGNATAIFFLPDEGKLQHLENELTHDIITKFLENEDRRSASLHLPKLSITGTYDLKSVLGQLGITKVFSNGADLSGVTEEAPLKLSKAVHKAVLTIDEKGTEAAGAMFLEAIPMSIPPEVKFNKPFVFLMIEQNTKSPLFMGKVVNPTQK

| Substance | % of Total A1PI Eluted by Fraction (Based on Absorbance at 280 nm), 1M NaCl [1] [%] | % of Total A1PI Eluted by Fraction (Based on Absorbance at 280 nm), 2% Acetic Acid [1] [%] | % of Total A1PI Eluted by Fraction (Based on Absorbance at 280 nm), Flowthrough [1] [%] | other results |
| --- | --- | --- | --- | --- |
| N I F L V R: point mutation of VIFLVR, position 1 (NIFLVR) | – | – | – | % of Total A1PI Eluted by Fraction (Based on Absorbance at 280 nm), 1M NaCl (VIFLVR point mutations, 4° C.): 25%; % of Total A1PI Eluted by Fraction (Based on Absorbance at 280 nm), 2% Acetic Acid (VIFLVR point mutations, 4° C.): 75%; % of Total A1PI Eluted by Fraction (Based on Absorbance at 280 nm), Flowthrough (VIFLVR point mutations, 4° C.): 0% |
| NDWLVR: point mutation of VIWLVR on Ala-Totda-Toyopearl (not fully specified (C-terminus)) | 0 | 0 | 100 | – |
| NSWLVR: point mutation of VIWLVR on Ala-Totda-Toyopearl (not fully specified (C-terminus)) | 43 | 5 | 52 | – |
| NWKRVR | – | – | – | Percent A1PI Eluted by Fraction Based on Absorbance at 280 nm, 1M NaCl (4° C.): 95%; Percent A1PI Eluted by Fraction Based on Absorbance at 280 nm, 2% Acetic Acid (4° C.): 5%; Percent A1PI Eluted by Fraction Based on Absorbance at 280 nm, Flowthrough (4° C.): 0%; Percent A1PI Eluted by Fraction, 1M NaCl (20° C.): 93%; Percent A1PI Eluted by Fraction, 2% Acetic Acid (20° C.): 7%; Percent A1PI Eluted by Fraction, Flowthrough (20° C.): 0% |
| RRKYLW | – | – | – | Percent A1PI Eluted by Fraction Based on Absorbance at 280 nm, 1M NaCl (4° C.): 92%; Percent A1PI Eluted by Fraction Based on Absorbance at 280 nm, 2% Acetic Acid (4° C.): 8%; Percent A1PI Eluted by Fraction Based on Absorbance at 280 nm, Flowthrough (4° C.): 0%; Percent A1PI Eluted by Fraction, 1M NaCl (20° C.): 82%; Percent A1PI Eluted by Fraction, 2% Acetic Acid (20° C.): 18%; Percent A1PI Eluted by Fraction, Flowthrough (20° C.): 0% |
| SDWLVR: point mutation of VIWLVR on Ala-Totda-Toyopearl (not fully specified (C-terminus)) | 1 | 1 | 98 | – |
| SHWLVR: point mutation of VIWLVR on Ala-Totda-Toyopearl (not fully specified (C-terminus)) | 87 | 13 | 0 | – |
| SNWLVR: point mutation of VIWLVR on Ala-Totda-Toyopearl (not fully specified (C-terminus)) | 95 | 5 | 0 | – |
| V A F L V R: point mutation of VIFLVR, position 2 (VAFLVR) | – | – | – | % of Total A1PI Eluted by Fraction (Based on Absorbance at 280 nm), 1M NaCl (VIFLVR point mutations, 4° C.): 55%; % of Total A1PI Eluted by Fraction (Based on Absorbance at 280 nm), 2% Acetic Acid (VIFLVR point mutations, 4° C.): 45%; % of Total A1PI Eluted by Fraction (Based on Absorbance at 280 nm), Flowthrough (VIFLVR point mutations, 4° C.): 0%; % of Total A1PI Eluted by Fraction (Based on Absorbance at 280 nm), 1M NaCl (VIFLVR point mutations, 20° C.): 8%; % of Total A1PI Eluted by Fraction (Based on Absorbance at 280 nm), 2% Acetic Acid (VIFLVR point mutations, 20° C.): 92%; % of Total A1PI Eluted by Fraction (Based on Absorbance at 280 nm), Flowthrough (VIFLVR point mutations, 20° C.): 0% |
| V H F L V R: point mutation of VIFLVR, position 2 (VHFLVR) | – | – | – | % of Total A1PI Eluted by Fraction (Based on Absorbance at 280 nm), 1M NaCl (VIFLVR point mutations, 4° C.): 35%; % of Total A1PI Eluted by Fraction (Based on Absorbance at 280 nm), 2% Acetic Acid (VIFLVR point mutations, 4° C.): 65%; % of Total A1PI Eluted by Fraction (Based on Absorbance at 280 nm), Flowthrough (VIFLVR point mutations, 4° C.): 0% |

Second part, led by results:

| % of Total A1PI Eluted by Fraction (Based on Absorbance at 280 nm), 1M NaCl [1] [%] | % of Total A1PI Eluted by Fraction (Based on Absorbance at 280 nm), 2% Acetic Acid [1] [%] | % of Total A1PI Eluted by Fraction (Based on Absorbance at 280 nm), Flowthrough [1] [%] | Substance | other results |
| --- | --- | --- | --- | --- |
| 83 | 17 | 0 | NHWLVR: point mutation of VIWLVR on Ala-Totda-Toyopearl (not fully specified (C-terminus)) | – |
| 13 | 4 | 83 | NNWLVR: point mutation of VIWLVR on Ala-Totda-Toyopearl (not fully specified (C-terminus)) | – |
| 94 | 6 | 0 | SSWLVR: point mutation of VIWLVR on Ala-Totda-Toyopearl (not fully specified (C-terminus)) | – |
